Results published in the RNAGym collection of RNA variant scans (doi:10.1021/acssynbio.7b00057).

B1: Pistol ribozyme (parent)
chain: GGGUCGUUGUUCCAUAAUCGCGUGGAUAUGGCACGCAAGUUUCUACCGGGCACCGUAAAUGUCCGACUGGAGCCGUUCGGGCGGCUAUAAACAGACCUCAGGCCCGAAGCGUGGCGGCACCUGCCGCCGGUGGUAAAAAAGAUCGGAAGAGCACACGUCU

Variants of: B1
Assay: aptazyme ON/OFF ratio, guanine; higher = stronger switching; co-transcriptional cleavage with and without guanine
With GGGUCGGCACCCUAUAAUCGCGUGGAUAUGGCACGCAAGUUUCUACCGGGCACCGUAAAUGUCCGACUGGAGCCGUUCGGGCGGCUAUAAACAGACCUCAGGCCCGAAGCGUGGCGGCACCUGCCGCCGGUGGUAAAAAAGAUCGGAAGAGCACACGUCU [U7G U8C G9A U10C U11C C13U] the “aptazyme ON/OFF ratio” value was 1.01.
For GGGUCGGCACCCGAUAAUCGCGUGGAUAUGGCACGCAAGUUUCUACCGGGCACCGUAAAUGUCCGACUGGAGCCGUUCGGGCGGCUAUAAACAGACCUCAGGCCCGAAGCGUGGCGGCACCUGCCGCCGGUGGUAAAAAAGAUCGGAAGAGCACACGUCU [U7G U8C G9A U10C U11C C13G], the “aptazyme ON/OFF ratio” value was 1.03.
With GGGUCGGCACCCAAUAAUCGCGUGGAUAUGGCACGCAAGUUUCUACCGGGCACCGUAAAUGUCCGACUGGAGCCGUUCGGGCGGCUAUAAACAGACCUCAGGCCCGAAGCGUGGCGGCACCUGCCGCCGGUGGUAAAAAAGAUCGGAAGAGCACACGUCU [U7G U8C G9A U10C U11C C13A] the “aptazyme ON/OFF ratio” value was 1.02.
With GGGUCGGCACAAGAUAAUCGCGUGGAUAUGGCACGCAAGUUUCUACCGGGCACCGUAAAUGUCCGACUGGAGCCGUUCGGGCGGCUAUAAACAGACCUCAGGCCCGAAGCGUGGCGGCACCUGCCGCCGGUGGUAAAAAAGAUCGGAAGAGCACACGUCU [U7G U8C G9A U10C U11A C12A C13G] the “aptazyme ON/OFF ratio” value was 1.11.
In the case of GGGUCGGCACAAUAUAAUCGCGUGGAUAUGGCACGCAAGUUUCUACCGGGCACCGUAAAUGUCCGACUGGAGCCGUUCGGGCGGCUAUAAACAGACCUCAGGCCCGAAGCGUGGCGGCACCUGCCGCCGGUGGUAAAAAAGAUCGGAAGAGCACACGUCU [U7G U8C G9A U10C U11A C12A C13U], the “aptazyme ON/OFF ratio” value is reported as 1.14.
With GGGUCGGCACAAAAUAAUCGCGUGGAUAUGGCACGCAAGUUUCUACCGGGCACCGUAAAUGUCCGACUGGAGCCGUUCGGGCGGCUAUAAACAGACCUCAGGCCCGAAGCGUGGCGGCACCUGCCGCCGGUGGUAAAAAAGAUCGGAAGAGCACACGUCU [U7G U8C G9A U10C U11A C12A C13A] the “aptazyme ON/OFF ratio” value was 1.15.
With GGGUCGGCACCAAAUAAUCGCGUGGAUAUGGCACGCAAGUUUCUACCGGGCACCGUAAAUGUCCGACUGGAGCCGUUCGGGCGGCUAUAAACAGACCUCAGGCCCGAAGCGUGGCGGCACCUGCCGCCGGUGGUAAAAAAGAUCGGAAGAGCACACGUCU [U7G U8C G9A U10C U11C C12A C13A] the “aptazyme ON/OFF ratio” value was 1.2.
In the case of GGGUCGGCACCAUAUAAUCGCGUGGAUAUGGCACGCAAGUUUCUACCGGGCACCGUAAAUGUCCGACUGGAGCCGUUCGGGCGGCUAUAAACAGACCUCAGGCCCGAAGCGUGGCGGCACCUGCCGCCGGUGGUAAAAAAGAUCGGAAGAGCACACGUCU [U7G U8C G9A U10C U11C C12A C13U], the “aptazyme ON/OFF ratio” value is reported as 1.2.
For GGGUCGGCACCAGAUAAUCGCGUGGAUAUGGCACGCAAGUUUCUACCGGGCACCGUAAAUGUCCGACUGGAGCCGUUCGGGCGGCUAUAAACAGACCUCAGGCCCGAAGCGUGGCGGCACCUGCCGCCGGUGGUAAAAAAGAUCGGAAGAGCACACGUCU [U7G U8C G9A U10C U11C C12A C13G], the “aptazyme ON/OFF ratio” value was 1.28.
For GGGUCGGCACCGCAUAAUCGCGUGGAUAUGGCACGCAAGUUUCUACCGGGCACCGUAAAUGUCCGACUGGAGCCGUUCGGGCGGCUAUAAACAGACCUCAGGCCCGAAGCGUGGCGGCACCUGCCGCCGGUGGUAAAAAAGAUCGGAAGAGCACACGUCU [U7G U8C G9A U10C U11C C12G], the “aptazyme ON/OFF ratio” value was 1.16.
In the case of GGGUCGGCACCACAUAAUCGCGUGGAUAUGGCACGCAAGUUUCUACCGGGCACCGUAAAUGUCCGACUGGAGCCGUUCGGGCGGCUAUAAACAGACCUCAGGCCCGAAGCGUGGCGGCACCUGCCGCCGGUGGUAAAAAAGAUCGGAAGAGCACACGUCU [U7G U8C G9A U10C U11C C12A], the “aptazyme ON/OFF ratio” value is reported as 1.16.
With GGGUCGGCACCUCAUAAUCGCGUGGAUAUGGCACGCAAGUUUCUACCGGGCACCGUAAAUGUCCGACUGGAGCCGUUCGGGCGGCUAUAAACAGACCUCAGGCCCGAAGCGUGGCGGCACCUGCCGCCGGUGGUAAAAAAGAUCGGAAGAGCACACGUCU [U7G U8C G9A U10C U11C C12U] the “aptazyme ON/OFF ratio” value was 1.09.
With GGGUCGGCACCUAAUAAUCGCGUGGAUAUGGCACGCAAGUUUCUACCGGGCACCGUAAAUGUCCGACUGGAGCCGUUCGGGCGGCUAUAAACAGACCUCAGGCCCGAAGCGUGGCGGCACCUGCCGCCGGUGGUAAAAAAGAUCGGAAGAGCACACGUCU [U7G U8C G9A U10C U11C C12U C13A] the “aptazyme ON/OFF ratio” value was 1.04.
For GGGUCGGCACCUGAUAAUCGCGUGGAUAUGGCACGCAAGUUUCUACCGGGCACCGUAAAUGUCCGACUGGAGCCGUUCGGGCGGCUAUAAACAGACCUCAGGCCCGAAGCGUGGCGGCACCUGCCGCCGGUGGUAAAAAAGAUCGGAAGAGCACACGUCU [U7G U8C G9A U10C U11C C12U C13G], the “aptazyme ON/OFF ratio” value was 1.04.
For GGGUCGGCACCUUAUAAUCGCGUGGAUAUGGCACGCAAGUUUCUACCGGGCACCGUAAAUGUCCGACUGGAGCCGUUCGGGCGGCUAUAAACAGACCUCAGGCCCGAAGCGUGGCGGCACCUGCCGCCGGUGGUAAAAAAGAUCGGAAGAGCACACGUCU [U7G U8C G9A U10C U11C C12U C13U], the “aptazyme ON/OFF ratio” value was 1.06.
With GGGUCGGCACAUGAUAAUCGCGUGGAUAUGGCACGCAAGUUUCUACCGGGCACCGUAAAUGUCCGACUGGAGCCGUUCGGGCGGCUAUAAACAGACCUCAGGCCCGAAGCGUGGCGGCACCUGCCGCCGGUGGUAAAAAAGAUCGGAAGAGCACACGUCU [U7G U8C G9A U10C U11A C12U C13G] the “aptazyme ON/OFF ratio” value was 1.06.
In the case of GGGUCGGCACAUAAUAAUCGCGUGGAUAUGGCACGCAAGUUUCUACCGGGCACCGUAAAUGUCCGACUGGAGCCGUUCGGGCGGCUAUAAACAGACCUCAGGCCCGAAGCGUGGCGGCACCUGCCGCCGGUGGUAAAAAAGAUCGGAAGAGCACACGUCU [U7G U8C G9A U10C U11A C12U C13A], the “aptazyme ON/OFF ratio” value is reported as 1.08.
In the case of GGGUCGGCACAUUAUAAUCGCGUGGAUAUGGCACGCAAGUUUCUACCGGGCACCGUAAAUGUCCGACUGGAGCCGUUCGGGCGGCUAUAAACAGACCUCAGGCCCGAAGCGUGGCGGCACCUGCCGCCGGUGGUAAAAAAGAUCGGAAGAGCACACGUCU [U7G U8C G9A U10C U11A C12U C13U], the “aptazyme ON/OFF ratio” value is reported as 1.02.
